# Test: soluble on expression in E. coli; label from the status in PepcDB or PDB records
row,Sequence,soluble on expression in E. coli
1,GMAEQMRRVARLFGDWPETIIWTCLEGTMGDIYVDDSQSPQSALALYGRQSFFGFLAGQPHRDLLKICEGKNIILVPQNQAWSDLIEEVYGDGVRFFTRYATKKDTEFDLGHLQKLVDDLPESFDMKLIDRNLYETCLVEEWSRDLVGNYIDVEQFLDLGLGCVILHKGQVVSGASSYASYSAGIEIEVDTREDYRGLGLAKACAAQLILACLDRGLYPSWDAHTLTSLKLAEKLGYELDKAYQAYEWR,soluble
2,MLKVESISKDYREFKLREISFDVREGEHFIILGPSGSGKTVLLEIIAGIISPDRGRILLRGEDITGLPPEKRNFSYIPQNYALFPHMTVFDNIAFGLKLRKIPRKEVARKVREVAESLGIDHLLHRKPRTLSGGEQQRVAIARALVVKPELLLMDEPFANLDVQTKSKLIREMKRWRKEFGFTAIHVTHSFEEALSLGDRVGIMLRGRLVQVGDVRDVFSKPKSEEVARFLGFENIIEGVANGRILKVGDLRIELPREVWGKVRVGIRPEDITIFMEGVKTSARNVFKARVEGIEDLGALVKLTLNLGGIILRAFITRSSLIELGIREGEEVYASFKASAIHVFP,soluble
3,MGSDKIHHHHHHMMFLPEQISKLNELETLVFDFIIKSPEEVQQMTIRDLASQAHVSTSTIVRLCTKLGFEGWSDLKFYLKNQLKEKTPEEQHYDNMLEFNMFLRRMNTDNYQAKLNNAAQMIAKADYTVFLGLGTSGSLSEYATKYFVNTGLRSFVISDPFQAVQVQGMGNVVAVIMSVSGETEQVVNKELEFKAGGAKIISITNNEDCTVAKLADYQLSYNLVNEWSKQYPLGNLTTQLPVLAILEILAHKSIDYHLKK,not soluble
4,MAYVTWLLAILHVHKDSFEIAAPSDSYLSAEPGQDVTLTCQLPRTWPVQQVIWEKVQPHQVDILASCNLSQETRYTSKYLRQTRSNCSQGSMKSILIIPNAMAADSGLYRCRSEAITGKNKSFVIRLIITDGE,not soluble
5,MGSDKIHHHHHHTNEDIVKNNVNQPEKVKGNLSLVISSTSNSSRAADNEESGVTDPGIEGESTVTDAVIILNRLDENGNLTKEEFGGYLTKAQLNETTASGETIYNPFFTLANSGWYKVLVVLNPTESIEAIANSQQSTDKSKYEQIAESSYTTTGDITIAAAGQFMMVNKKEIKVDVLSNNYEDPTIKEVEVERVVSKINYVIAKPNNLYPLTVQTTDYAIAETTSGYYIYPDNKAVRLTGLHKAKNLDNDNSDVWIHEGTDGTDRRAFIKTEKTYGQTGEHIFTLLEPFPKFEYYTTSTDGELDWTVKLDKYALVNLSNSVYTARHLTDASWENCKHSASCVFLSKL,not soluble
6,AQVDLLNVKGEKVGTLEISDFVFNIDPNYDVMWRYVDMQLSNRRAGTASTKTRGEVSGGGRKPWPQKHTGRARHGSIRSPIWRHGGVVHGPKPRDWSKKLNKKMKKLALRSALSVKYRENKLLVLDDLKLERPKTKSLKEILQNLQLSDKKTLIVLPWKEEGYMNVKLSGRNLPDVKVIIADNPNNSKNGEKAVRIDGLNVFDMLKYDYLVLTRDMVSKIEEVLG,soluble
7,MSLPLVTLNSVRFAGMATCVPKRVVSNLTDCKPQIRPERERLVRNIGIELRRLTQEWQCFSDLAFDAASKLIESLEWKLEEIDALIVVTQSPDYLAPATAIILQDRLGLPHTTLAFDVNLGCSGYPFGLHLLGSLISAGGIKKGLVLVGDSGAQLNDPIFSDAGTATAMEFCADAPPMYFDLNSDGSGHKAIILPVGGHREPVGIQHLVPFRENENDHWHRAIDLQLDGTAVLSFSTQRVPPAVEKLLEYANASKDEVDYFIFHQANRMINETIRKKLALPVEKVPSTLRDFGNTSGASLPVTMTARINKQLEEGSKRLVLSGFGIGLSWGTCLVDIQGAKFPDLIESEGHHHHHH,soluble
8,MAKIILRHLIEIPVRYQEEFEARGLEDCRLDHALYALPGPTIVDLRKTRAAQSPPVDSAAETPPREGKSHFQILLDVVQFLPEDIIIQTFEGWLLIKAQHGTRMDEHGFISRSFTRQYKLPDGVEIKDLSAVLCHDGILVVEVKDPVGTK,soluble
9,MGKSASKQFHNEVLKAHNEYRQKHGVPPLKLCKNLNREAQQYSEALASTRILKHSPESSRGQCGENLAWASYDQTGKEVADRWYSEIKNYNFQQPGFTSGTGHFTAMVWKNTKKMGVGKASASDGSSFVVARYFPAGNVVNEGFFEENVLPPKK,soluble
10,MSLTLYKPNETDFTHNGIGALDKNIYNATVEEELNGLFLFSFSYPLFAPHGLEIEGMSIIKVPTPDGEQLFRVAAPKASMGEVTAQCYHIFYDLTENLIEDIFAETTNGNGAMNRMSAGCQYKHPFQFYSDVPKIASARIVRKNPVEALLDSSQDNSFVNRWGGELKRDNFDVKMLQNRGMDRGVVIRHKKDLLGYEGNVDWKSPITRIMPQGFDGLFLPEKYVDSPLINKYPHPKIKVVEFKHIKAAIGENADDEDAVPLEEAYRLLRQAAKGMFTIQKADQPKATYNVKFQELSQTEEYKDYKHLQSVYMADTVTVEHQEDGIDIKAKVIAYKYDPIKKEYLDVTIGNFKESFTDVSGRVDLVQEELSNMPSSILDAAKVNATSLINSGFGGHVRVYPNRILIMDTKDEKSAKKVWQWNLNGLGYSSTGVNGPYGTAITSDGRIVADFITAGTLSGNFVRGGEITGSTEGHHHHHH,soluble
11,MLIACRLCAKAVQQGLKTVVYVPDERLAGQFDKLLWTFTPTGFVPHCRVDNKLADVTPVIMNSRPVLMEAGCFGVLLNLDADVPPGFEQFPRVVEIVDEAEDGKLQARKRYRHYQEQGHDVRHHRLDGN,not soluble
12,MKYDILIAGVGGQGVVLASRILALSAMKAGFRVSTAETIGMSQREGSVSSHVRIGDEISGSLIPEGKADLLIGLEPAETIRNLPFLKEGGKIIVNSHAIPPASKPPGSPEYNPGALLSYLKTGFPDFFCLDFTRLAEEAGTYRAANVAMIGAAAGMGILPFSKEIVLALMEAEIPEKHRAVNRAAFEEAVKKIK,not soluble
13,MNIQSIETYQVRLPLKTPFVTSYGRLEEKAFDLFVITDEQGNQGFGELVAFEQPDYVQETLVTERFIIQQHLIPLLLTEAIEQPQEVSTIFEEVKGHWMGKAALETAIWDLYAKRQQKSLTEFFGPTRRKIPVGISLGIQEDLPQLLKQVQLAVEKGYQRVKLKIRPGYDVEPVALIRQHFPNLPLMVDANSAYTLADLPQLQRLDHYQLAMIEQPFAADDFLDHAQLQRELKTRICLDENIRSLKDCQVALALGSCRSINLKIPRVGGIHEALKIAAFCQENDLLVWLGGMFESGVGRALNLQFASQPTFSFPGDISATERYFYEDIITEPFILEQGTMTVPQGLGIGVTLSQTNLLKYSQYQKIM,not soluble
14,MGSDKIHHHHHHMPLLEIKNLTKIFTIGSIFSRTRIVAVDNVNFDINEAEIFTLAGESGCGKTTTAKIILGFEEPTSGEIIYKGRKIDRVHQNEKERRELLKEIQAVFQNPFSTFNPLRKVDRYFYETLFNLGIADTKKKAEEIIKEKLSAVGISFEEFSEKYPSEFSGGQLQRISIARALLTNPSLLVADEPVSMVDASLRMSIVNLFKDLKEQYGVSVLYITHDLTTAYYVSDRIAVMFRGNIVELGPAEKVLMEPKHPYTQLLRESVPEPDPKKKWDIRIKLSETEQAEYLRQGCKFAGRCPKAMDICRKEPPPYFEVDGVQVKCWLYR,not soluble
15,MGSDKIHHHHHHMYFNVYGHAGKPIIVFPSSGGSQNEYGDFGMIEACQSFIDRGVVKFYTPDSLDRESWLAEGKSGHDMALAHEAYDRYIVHELVPLIRYESNWNGMMMATGCSMGAFHTVNFSLRHPDLFDISVALSGVYDARFFTGEFYGDPAVYYNSPIDYLWNQEDSWFLDRYRRNRFIVAVGQGAWEEPHIIDTIRLKEAFEAKSIPAWFDFWGSDVAHDWEWWRVQMPYFLGKLEEEGRI,not soluble
16,MSSSDHIHVPDGLAESYSRSGGEEGRAWIAGLPALVARCVDRWELKRDGGVRSGEASLVVPVLRADGTRAALKLQMPREETTAALIGLRAWGGDGMVRLLDHDEESSTMLLERLDGSRTLASVEDDDEAMGVLAGLLNRLHSVPAPPGLRGLGEIAGAMVEEVPSAVDSLADPEDRSRLRGWASAVAELVGEPGDRVLHWDLHYENVLAAEREPWLAIDPEPLVGDPGFDLWPALDTGWERIEATGDARRVVRRRFDLLTEALELDRGRAAGWTLARLLQNTLWDIEDGLTAIAPSQIAVAEALAKP,not soluble
17,MDSDRLSSVEQFPDRGNNHVEEGSAIDYQRVPPLSGTHYASTVSAGFYEATPLLGSLVHTLEHGAVIVYYDPDEISPEARQSLREFSSVHTGTWRSVVAVPNPNDDPRATYVVTAWQHELTIDSYDAETVHAFLSEYLGRGPENPVRLEHHHHHH,not soluble
18,NRWGSPWAVKPEDKAKYDAIFDSLSPVNGFLSGDKVKPVLLNSKLPVDILGRVWELSDIDHDGMLDRDEFAVAMFLVYCALEKEPVPMSLPPALVPPSKRKTWLEI,soluble
19,MKRFARKETIYLRGEEARTLYRLEEGLVRVVELLPDGRLITLRHVLPGDYFGEEALEGKAYRYTAEAMTEAVVQGLEPRAMDHEALHRVARNLARQMRRVQAYEAHLQTGELRARIARYLLFLADTPLSARDRQGIYVTVSHEEIADATASIRESVSKVLADLRREGLIATAYRRVYLLDLAALEREAGSALEAA,soluble
20,MGSDKIHHHHHHMKLTIAGDSHGKYMVAILEGLPSGIRVDEELIRRDLFRRRNCYGRGKRMKMEEDAFEIVSGLWKGITTGAPVTILIPNRAGNPVKDVRSVPRPGHIDYAAWVKYKLPDLNIYVERSSARWTVALTAAGSLLKSLLKEFGIEVLGFVTRLGNVEARDIPGDFEELKRRRDESVVFCPDPEATKEMVAEIDRAKEEGNTLGGKVKVIARGVPAGIGSYSDLFKKLDSKIGSLFFAIPAVKGVVIGSEEMWYGFDYLDEFELEDGKIKRKTNNLGGIEGGITNGEDVWVNVSVKPIPTTGKPLKSVDLRTMEPAKTPYVRSDVTAVPPASVVCEAALAVVISDALLEHLGDGNIDDLKRRFENENLPRWNDGFWKEHYR,not soluble
21,MAHHHHHHVDDDDKMAGDSAAYQRTSLYGDDVVIVAAHRTPLCKSKRGNFKDTYPDDLLAPVLRALIEKTNLNPSEVGDIVVGTVLAPGSQRASECRMAAFYAGFPETVAVRTVNRQCSSGLQAVADVAAAIKAGFYDIGIGAGLESMTTNPMAWEGSVNPAVKKFAQAQNCLLPMGVTSENVAQRFGVSRQEQDQAAVDSHRKAAAATAAGKFKDEIIPVKTKLVDPKTGDEKPITVSVDDGIRPTTTLASLGKLKPVFKKDGTTTAGNSSQVSDGAGAVLLMKRSVAMQKGLPVLGVFRTFAAVGVDPAIMGIGPAVAIPAAVKAAGLELDDIDLFEINEAFASQFVYCRNKLGLDPEKINVNGGAMAIGHPLGATGARCVATLLHEMKRRGKDCRFGVVSMCIGTGMGAAAVFERGDGVDELRNARKVEAQGLLSKDAR,soluble
22,MGHHHHHHSHMTSLMDLTLLLARSQPELIEAHTCERIMCCVAQQASEKIDRFRAHAASVFLTLLHFDSPPIPHVPHRGELEKLFPRSDVASVNWSAPSQAFPRITQLLGLPTYRYHVLLGLVVSLGGLTESTIRHSTQSLFEYMKGIQSDPQALGSFSGTLLQIFEDNLLNERVSVPLLKTLDHVLTHGCFDIFTTEEDHPFSVKLLALCKKEIKNSKDIQKLLSGIAVFCEMVQFPGDVRRQALLQLCLLLCHRFPLIRKTTASQVYETLLTYSDVVGADVLDEVVTVLSDTAWDAELAVVREQRNRLCDLLGVPRPQLVPQPGAC,not soluble

# — the DeepSol protein solubility set
